From PMC3146532, “Multiple ATR-Chk1 Pathway Proteins Preferentially Associate with Checkpoint-Inducing DNA Substrates”

Tests used:
[1] = biological target: T1, His-Chk1 (UniProt O14757 1-476); assay: pull-down; 10 mM Tris pH 7.4, 50 mM NaCl (oligo DNA) or 100 mM NaCl (plasmid; 200/300 mM for TopBP1 salt series), 10 ug/ml BSA, 10% glycerol, 0.01% NP-40, room temperature, 30 min; bead pull-down with immunoblot; settings: protein: recombinant, tags: His
T1 sequence: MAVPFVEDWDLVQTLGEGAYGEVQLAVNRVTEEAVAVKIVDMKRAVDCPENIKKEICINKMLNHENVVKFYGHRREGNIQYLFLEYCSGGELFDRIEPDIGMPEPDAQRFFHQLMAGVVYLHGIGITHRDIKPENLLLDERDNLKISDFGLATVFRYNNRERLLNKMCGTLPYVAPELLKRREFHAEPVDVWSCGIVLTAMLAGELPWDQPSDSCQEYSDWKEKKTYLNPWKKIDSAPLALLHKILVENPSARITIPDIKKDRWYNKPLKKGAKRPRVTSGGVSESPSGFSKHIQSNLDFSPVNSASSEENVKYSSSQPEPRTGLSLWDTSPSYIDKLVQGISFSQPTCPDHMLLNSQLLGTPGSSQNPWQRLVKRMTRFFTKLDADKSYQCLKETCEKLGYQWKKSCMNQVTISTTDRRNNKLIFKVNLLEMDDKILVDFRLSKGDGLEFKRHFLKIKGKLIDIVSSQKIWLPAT

[2] = biological target: T2, FAAP24-His (UniProt Q9BTP7 1-215); assay: as above; settings: protein: recombinant, tags: His (pET21b)
T2 sequence: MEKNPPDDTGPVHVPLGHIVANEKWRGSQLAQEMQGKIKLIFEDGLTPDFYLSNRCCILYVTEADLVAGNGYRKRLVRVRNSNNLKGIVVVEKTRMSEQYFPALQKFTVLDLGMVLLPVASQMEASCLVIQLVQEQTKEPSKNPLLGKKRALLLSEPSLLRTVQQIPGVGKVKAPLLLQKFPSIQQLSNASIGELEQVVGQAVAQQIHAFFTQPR

[3] = biological target: RPA (heterotrimer) (UniProt P27694;P15927;P35244 1-616;1-270;1-121); assay: pull-down; up to 10-fold more than dsDNA; 10 mM Tris pH 7.4, 50 mM NaCl (oligo DNA) or 100 mM NaCl (plasmid; 200/300 mM for TopBP1 salt series), 10 ug/ml BSA, 10% glycerol, 0.01% NP-40, room temperature, 30 min; bead pull-down with immunoblot; settings: protein: recombinant, copies: 1;1;1
Sequence of RPA (heterotrimer) (P27694 whole entry, chain 1 of 3): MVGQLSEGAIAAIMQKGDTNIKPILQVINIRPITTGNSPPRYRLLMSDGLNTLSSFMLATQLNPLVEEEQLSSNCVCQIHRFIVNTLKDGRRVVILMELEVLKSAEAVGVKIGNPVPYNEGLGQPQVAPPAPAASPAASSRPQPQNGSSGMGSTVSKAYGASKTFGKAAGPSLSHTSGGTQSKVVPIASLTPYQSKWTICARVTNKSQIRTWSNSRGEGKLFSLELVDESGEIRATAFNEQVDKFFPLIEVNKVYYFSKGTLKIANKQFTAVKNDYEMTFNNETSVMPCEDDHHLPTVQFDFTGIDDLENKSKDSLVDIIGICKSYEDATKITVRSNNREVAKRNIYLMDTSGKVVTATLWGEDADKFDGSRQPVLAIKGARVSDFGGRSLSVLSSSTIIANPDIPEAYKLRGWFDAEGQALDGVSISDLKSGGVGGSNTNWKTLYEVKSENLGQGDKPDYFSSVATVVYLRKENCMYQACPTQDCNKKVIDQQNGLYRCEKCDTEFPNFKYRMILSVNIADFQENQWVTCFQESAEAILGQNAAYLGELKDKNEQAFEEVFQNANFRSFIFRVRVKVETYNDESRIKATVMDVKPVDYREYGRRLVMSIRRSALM
Sequence of RPA (heterotrimer) (P15927 whole entry, chain 2 of 3): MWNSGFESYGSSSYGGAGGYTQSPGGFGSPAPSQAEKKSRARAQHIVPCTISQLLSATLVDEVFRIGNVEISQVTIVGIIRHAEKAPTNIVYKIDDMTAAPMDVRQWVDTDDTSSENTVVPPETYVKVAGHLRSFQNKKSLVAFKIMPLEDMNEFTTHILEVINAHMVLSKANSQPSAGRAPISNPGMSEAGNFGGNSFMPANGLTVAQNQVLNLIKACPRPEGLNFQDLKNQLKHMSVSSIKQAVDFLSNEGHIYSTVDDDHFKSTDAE
Sequence of RPA (heterotrimer) (P35244 whole entry, chain 3 of 3): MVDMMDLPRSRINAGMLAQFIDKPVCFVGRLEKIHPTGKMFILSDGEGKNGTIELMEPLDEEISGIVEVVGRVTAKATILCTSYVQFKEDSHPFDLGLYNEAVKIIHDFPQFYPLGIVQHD

[4] = biological target: MBP-XPA (UniProt P23025 1-273); assay: pull-down; 10 mM Tris pH 7.4, 50 mM NaCl (oligo DNA) or 100 mM NaCl (plasmid; 200/300 mM for TopBP1 salt series), 10 ug/ml BSA, 10% glycerol, 0.01% NP-40, room temperature, 30 min; bead pull-down with immunoblot; settings: protein: recombinant; tags: MBP; label: 5'-biotin on Oligo1; fork 1:2; 31 bp duplex, two 19 nt unpaired arms (3' of Oligo1, 5' of Oligo2)
Sequence of MBP-XPA (P23025 whole entry): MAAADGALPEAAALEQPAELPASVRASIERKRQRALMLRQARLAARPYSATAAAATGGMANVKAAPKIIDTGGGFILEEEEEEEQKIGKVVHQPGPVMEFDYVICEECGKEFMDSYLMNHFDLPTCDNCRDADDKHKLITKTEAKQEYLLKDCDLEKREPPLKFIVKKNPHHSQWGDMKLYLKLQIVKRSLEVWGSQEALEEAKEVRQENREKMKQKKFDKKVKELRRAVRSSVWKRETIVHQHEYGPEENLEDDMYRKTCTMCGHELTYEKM

[5] = biological target: FLAG-Timeless;Tipin-His (human?;human?, UniProt Q9UNS1;Q9BVW5 1-1208;1-301, |); assay: as above; settings: protein: recombinant;recombinant; tags: FLAG;His; copies: 1;1; label: 5'-biotin on Oligo1; fork 1:2; 31 bp duplex, two 19 nt unpaired arms (3' of Oligo1, 5' of Oligo2)
Sequence of FLAG-Timeless;Tipin-His (Q9UNS1 whole entry, one chain of several): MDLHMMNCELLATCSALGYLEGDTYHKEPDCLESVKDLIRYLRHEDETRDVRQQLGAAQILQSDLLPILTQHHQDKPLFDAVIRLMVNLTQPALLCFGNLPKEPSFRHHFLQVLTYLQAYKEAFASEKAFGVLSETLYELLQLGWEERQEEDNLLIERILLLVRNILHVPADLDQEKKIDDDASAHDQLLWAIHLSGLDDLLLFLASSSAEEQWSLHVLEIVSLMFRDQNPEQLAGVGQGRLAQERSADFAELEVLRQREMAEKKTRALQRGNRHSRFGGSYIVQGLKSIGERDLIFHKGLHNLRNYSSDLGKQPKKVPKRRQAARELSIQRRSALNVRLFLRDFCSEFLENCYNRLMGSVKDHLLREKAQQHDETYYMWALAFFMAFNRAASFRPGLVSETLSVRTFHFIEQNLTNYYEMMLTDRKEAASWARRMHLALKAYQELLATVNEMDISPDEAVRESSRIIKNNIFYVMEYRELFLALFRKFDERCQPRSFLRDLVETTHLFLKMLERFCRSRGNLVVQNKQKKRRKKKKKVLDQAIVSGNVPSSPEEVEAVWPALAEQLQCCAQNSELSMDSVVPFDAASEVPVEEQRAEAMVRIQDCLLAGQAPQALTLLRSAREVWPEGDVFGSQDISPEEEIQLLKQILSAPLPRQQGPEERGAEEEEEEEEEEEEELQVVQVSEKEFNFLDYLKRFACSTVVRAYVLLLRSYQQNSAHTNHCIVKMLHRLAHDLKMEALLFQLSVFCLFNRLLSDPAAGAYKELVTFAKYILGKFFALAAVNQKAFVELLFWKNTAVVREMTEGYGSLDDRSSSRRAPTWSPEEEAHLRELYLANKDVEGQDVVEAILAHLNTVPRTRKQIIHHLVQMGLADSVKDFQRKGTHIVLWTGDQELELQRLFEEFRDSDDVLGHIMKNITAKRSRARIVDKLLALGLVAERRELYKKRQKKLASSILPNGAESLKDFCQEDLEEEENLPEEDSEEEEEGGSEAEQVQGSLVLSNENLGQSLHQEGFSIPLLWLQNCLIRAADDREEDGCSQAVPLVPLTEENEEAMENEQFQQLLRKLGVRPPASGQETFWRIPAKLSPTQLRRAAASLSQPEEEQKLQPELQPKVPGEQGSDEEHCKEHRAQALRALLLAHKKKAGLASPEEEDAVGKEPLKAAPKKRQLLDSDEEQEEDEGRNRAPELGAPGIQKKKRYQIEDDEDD

[6] = biological target: FLAG-Timeless (UniProt Q9UNS1 1-1208); assay: as above; settings: protein: recombinant; tags: FLAG; label: 5'-biotin on Oligo1; fork 1:2; 31 bp duplex, two 19 nt unpaired arms (3' of Oligo1, 5' of Oligo2)
Sequence of FLAG-Timeless (Q9UNS1 whole entry): as the sequence (Q9UNS1 whole entry, one chain of several) above

[7] = biological target: FLAG-Claspin (UniProt Q9HAW4 1-1339); assay: as above; settings: protein: recombinant; tags: FLAG; label: 5'-biotin on Oligo1; fork 1:2; 31 bp duplex, two 19 nt unpaired arms (3' of Oligo1, 5' of Oligo2)
Sequence of FLAG-Claspin (Q9HAW4 whole entry): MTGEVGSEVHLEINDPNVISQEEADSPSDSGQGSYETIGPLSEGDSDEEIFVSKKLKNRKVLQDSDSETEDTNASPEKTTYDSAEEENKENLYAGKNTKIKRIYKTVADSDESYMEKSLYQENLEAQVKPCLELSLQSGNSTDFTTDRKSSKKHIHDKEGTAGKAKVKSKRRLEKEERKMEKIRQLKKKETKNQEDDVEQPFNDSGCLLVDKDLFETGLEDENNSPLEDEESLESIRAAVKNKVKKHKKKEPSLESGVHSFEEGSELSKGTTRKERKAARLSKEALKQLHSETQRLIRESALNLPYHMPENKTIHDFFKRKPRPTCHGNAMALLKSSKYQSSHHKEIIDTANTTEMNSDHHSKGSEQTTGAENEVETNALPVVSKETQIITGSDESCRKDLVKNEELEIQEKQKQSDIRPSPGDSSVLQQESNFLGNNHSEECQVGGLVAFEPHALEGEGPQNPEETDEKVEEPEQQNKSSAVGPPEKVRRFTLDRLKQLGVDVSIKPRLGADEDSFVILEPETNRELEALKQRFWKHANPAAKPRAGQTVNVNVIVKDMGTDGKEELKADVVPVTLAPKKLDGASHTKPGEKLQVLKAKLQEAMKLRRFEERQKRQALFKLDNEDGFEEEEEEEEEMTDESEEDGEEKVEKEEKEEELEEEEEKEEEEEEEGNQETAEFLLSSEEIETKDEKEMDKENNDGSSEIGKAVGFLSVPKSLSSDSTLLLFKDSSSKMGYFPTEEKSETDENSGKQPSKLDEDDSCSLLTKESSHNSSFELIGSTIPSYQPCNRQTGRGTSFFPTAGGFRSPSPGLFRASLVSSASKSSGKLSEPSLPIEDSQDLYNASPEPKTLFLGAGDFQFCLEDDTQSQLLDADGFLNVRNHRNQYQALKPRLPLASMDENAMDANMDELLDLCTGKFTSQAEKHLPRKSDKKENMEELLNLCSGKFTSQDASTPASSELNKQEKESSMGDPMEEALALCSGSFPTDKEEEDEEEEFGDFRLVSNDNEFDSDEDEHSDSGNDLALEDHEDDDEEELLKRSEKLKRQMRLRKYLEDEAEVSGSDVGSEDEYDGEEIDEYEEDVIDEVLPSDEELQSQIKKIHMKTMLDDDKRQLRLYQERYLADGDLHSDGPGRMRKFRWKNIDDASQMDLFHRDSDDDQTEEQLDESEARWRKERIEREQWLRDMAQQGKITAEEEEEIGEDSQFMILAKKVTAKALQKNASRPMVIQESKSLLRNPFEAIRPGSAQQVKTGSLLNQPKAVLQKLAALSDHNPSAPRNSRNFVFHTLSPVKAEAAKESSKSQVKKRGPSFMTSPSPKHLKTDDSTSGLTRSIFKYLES

[8] = biological target: T3, 9-1-1 complex (FLAG-Rad9-Hus1-Rad1) (UniProt Q99638;O60921;O60671 1-391;1-280;1-282); assay: as above; settings: protein: recombinant; tags: FLAG on Rad9; copies: 1;1;1; label: 5'-biotin on Oligo1; fork 1:2; 31 bp duplex, two 19 nt unpaired arms (3' of Oligo1, 5' of Oligo2)
T3 sequence 1: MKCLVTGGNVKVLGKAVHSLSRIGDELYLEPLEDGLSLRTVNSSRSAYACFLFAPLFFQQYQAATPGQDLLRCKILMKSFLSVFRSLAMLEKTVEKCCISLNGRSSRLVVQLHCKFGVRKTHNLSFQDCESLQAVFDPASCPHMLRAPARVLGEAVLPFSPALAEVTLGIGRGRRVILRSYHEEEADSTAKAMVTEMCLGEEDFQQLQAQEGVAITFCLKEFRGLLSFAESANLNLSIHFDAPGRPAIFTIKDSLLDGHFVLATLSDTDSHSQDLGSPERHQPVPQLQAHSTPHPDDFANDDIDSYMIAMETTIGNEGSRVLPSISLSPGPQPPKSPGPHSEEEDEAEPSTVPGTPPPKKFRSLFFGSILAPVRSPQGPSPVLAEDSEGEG
T3 sequence 2: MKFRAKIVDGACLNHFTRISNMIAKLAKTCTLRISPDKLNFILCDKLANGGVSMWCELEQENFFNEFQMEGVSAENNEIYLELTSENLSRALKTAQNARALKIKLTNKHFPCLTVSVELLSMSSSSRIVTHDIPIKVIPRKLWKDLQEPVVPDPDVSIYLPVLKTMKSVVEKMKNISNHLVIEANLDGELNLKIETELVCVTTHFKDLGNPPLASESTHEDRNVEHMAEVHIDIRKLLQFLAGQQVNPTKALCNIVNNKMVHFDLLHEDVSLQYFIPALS
T3 sequence 3: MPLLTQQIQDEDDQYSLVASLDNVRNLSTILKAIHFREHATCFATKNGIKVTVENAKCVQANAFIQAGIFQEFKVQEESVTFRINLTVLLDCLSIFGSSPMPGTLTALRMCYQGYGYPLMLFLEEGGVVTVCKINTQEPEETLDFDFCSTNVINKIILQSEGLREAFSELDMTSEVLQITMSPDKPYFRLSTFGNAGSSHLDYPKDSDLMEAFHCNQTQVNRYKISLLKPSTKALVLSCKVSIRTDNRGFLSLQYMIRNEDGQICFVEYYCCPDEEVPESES

[9] = biological target: T4, FLAG-ATRIP (UniProt Q8WXE1 1-791); assay: pull-down; without RPA; 10 mM Tris pH 7.4, 50 mM NaCl (oligo DNA) or 100 mM NaCl (plasmid; 200/300 mM for TopBP1 salt series), 10 ug/ml BSA, 10% glycerol, 0.01% NP-40, room temperature, 30 min; bead pull-down with immunoblot; settings: protein: recombinant; tags: FLAG; label: 5'-biotin on Oligo1; fork 1:2; 31 bp duplex, two 19 nt unpaired arms (3' of Oligo1, 5' of Oligo2)
T4 sequence: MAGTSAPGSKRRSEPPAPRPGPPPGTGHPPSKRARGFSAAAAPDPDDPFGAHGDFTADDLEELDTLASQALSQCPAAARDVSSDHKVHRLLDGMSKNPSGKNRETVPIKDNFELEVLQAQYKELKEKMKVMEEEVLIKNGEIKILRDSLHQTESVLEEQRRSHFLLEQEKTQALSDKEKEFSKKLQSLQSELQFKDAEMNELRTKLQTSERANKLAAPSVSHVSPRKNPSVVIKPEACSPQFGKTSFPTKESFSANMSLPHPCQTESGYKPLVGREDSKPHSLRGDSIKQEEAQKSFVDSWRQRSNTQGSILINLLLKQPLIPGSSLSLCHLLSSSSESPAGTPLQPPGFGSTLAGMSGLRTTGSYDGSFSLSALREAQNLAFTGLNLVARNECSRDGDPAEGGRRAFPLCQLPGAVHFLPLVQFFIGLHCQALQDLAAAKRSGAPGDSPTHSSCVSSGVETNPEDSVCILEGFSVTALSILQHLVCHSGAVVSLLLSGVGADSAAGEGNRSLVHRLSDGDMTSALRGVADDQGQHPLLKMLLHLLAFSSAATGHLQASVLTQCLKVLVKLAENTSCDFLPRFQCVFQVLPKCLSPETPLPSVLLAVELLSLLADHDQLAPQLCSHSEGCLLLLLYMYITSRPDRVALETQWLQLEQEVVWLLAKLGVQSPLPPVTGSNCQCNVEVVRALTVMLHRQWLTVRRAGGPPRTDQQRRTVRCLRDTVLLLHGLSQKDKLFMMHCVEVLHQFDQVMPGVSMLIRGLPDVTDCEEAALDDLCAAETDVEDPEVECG

[10] = biological target: T5, Tipin-His (UniProt Q9BVW5 1-301); assay: pull-down; >10-fold over ssDNA or dsDNA at highest protein; 10 mM Tris pH 7.4, 50 mM NaCl (oligo DNA) or 100 mM NaCl (plasmid; 200/300 mM for TopBP1 salt series), 10 ug/ml BSA, 10% glycerol, 0.01% NP-40, room temperature, 30 min; bead pull-down with immunoblot; settings: protein: recombinant; tags: His; label: 5'-biotin on Oligo1; fork 1:2; 31 bp duplex, two 19 nt unpaired arms (3' of Oligo1, 5' of Oligo2)
T5 sequence: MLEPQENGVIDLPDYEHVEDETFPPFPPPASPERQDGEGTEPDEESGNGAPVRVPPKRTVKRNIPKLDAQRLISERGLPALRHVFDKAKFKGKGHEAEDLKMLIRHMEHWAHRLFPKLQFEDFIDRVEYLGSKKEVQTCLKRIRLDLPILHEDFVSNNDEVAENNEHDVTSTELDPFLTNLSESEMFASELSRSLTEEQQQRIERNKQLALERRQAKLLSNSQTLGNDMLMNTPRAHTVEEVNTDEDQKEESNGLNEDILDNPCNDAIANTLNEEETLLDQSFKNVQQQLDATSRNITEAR

[11] = label: 5'-biotin on Oligo1, fork 1:2, 31 bp duplex, two 19 nt unpaired arms (3' of Oligo1, 5' of Oligo2)

Measured: binding result

B1: ssDNA 50-mer (Oligo1) (ssDNA)
DNA: GACGCTGCCGAATTCTGGCTTGCTAGGACATCTTTGCCCACGTTGACCCG
binds: [1]; label: 5'-biotin | [2]; label: 5'-biotin | [3]; label: 5'-biotin

B2: fork DNA (Oligo1/Oligo2) (mixed)
DNA 1: B1 DNA
DNA 2: GCGATAGTCTCTAGACAGCATGTCCTAGCAAGCCAGAATTCGGCAGCGTC
binds: [4] | [5] | [6] | [1]; [11] | [7] | [8] | [2]; [11] | [9] | [3]; [11] | [10]
